Measured values taken from US11478551B2, “Long-acting adrenomedullin derivative” (University of Miyazaki, priority 2015, dated 2022).
Marks after values point to notes of the source that are not given here.

Tests used:
[1] = Measurement over time of AM concentration in plasma after subcutaneous administration (RIA); assay type: in vivo; conditions: rat
Experimental: 1 day, 7 days and 10 days after the start of the administration, 50 mg of pentobarbital was intraperitoneally administered, and 300 μL of blood was collected each time from the tail vain under anesthesia. Immediately, 300 μg of EDTA-2Na and […] of aprotinin were added to the obtained blood sample, and the mixture was centrifuged under conditions involving 10 minutes and 3000 rpm to obtain plasma. The AM concentration in the plasma of each sample was measured by radioimmunoassay (RIA) (Kitamura K, Ichiki Y, Tanaka M et al., Immunoreactive adrenomedullin in human plasma. FEBS Lett., vol. 341, p. 288-90, 1994).
The compound (37) prepared in experiment III-1 was subcutaneously administered in a single dose of 30 nmol/kg to each rat, and time-dependent change in the concentration in blood of the adrenomedullin derivative was observed. The compound (37) dissolved in physiological saline was subcutaneously administered to each 7- to 8-week-old male Wistar rat (approximately 250 g). 1 day, 2 days, 4 days, 7 days and 9 days after the start of the administration, 50 mg of pentobarbital was intraperitoneally administered, and 300 μL of blood was collected each time from the tail vain under anesthesia. Immediately, 300 μg of EDTA-2Na and […] of aprotinin were added to the obtained blood sample, and the mixture was centrifuged under conditions involving 10 minutes and 3000 rpm to obtain plasma. The AM concentration in the plasma of each sample was measured by RIA.

Wistar rat = assay: Blood pressure-lowering effect, single intravenous dose in rat under anesthesia; assay type: in vivo; conditions: 1 nmol/kg, single dose into the vein
Experimental: Each compound prepared in experiments I-1 and II-1 or full-length AM was administered in a single dose of 1 nmol/kg into the vein of each rat under anesthesia, and change in the blood pressure of the rat was observed. Each 11 to 14-week-old male Wistar rat was anesthetized by the inhalation of isoflurane. After tracheotomy, inhalational anesthesia was controlled at an isoflurane concentration of 1.5 to 2.5% and a flow rate of 0.6 to 0.8 L/min. The right jugular vein was isolated from the rat, and a catheter tube corresponding to 26 G was inserted thereto. Next, the left carotid artery was isolated from the rat thus treated, and a catheter tube corresponding to 23 G was inserted thereto. From the catheter tube of the right jugular vein, a physiological saline-heparin solution (physiological saline: 100 mL; heparin: 1000 units) was infused at 2.4 mL/hr. […] The catheter inserted in the carotid artery was connected to a pressure transducer. […] In the diagram, the ordinate depicts a difference obtained by subtracting the average blood pressure before the administration of each drug from the average blood pressure at the time of the administration of each drug.

AM receptor = target: T1, AM receptor (Homo sapiens, UniProt O60895+Q16602); assay: Intracellular cAMP concentration-increasing effect in HEK293 cell line caused to express an AM receptor; assay type: cell-based; conditions: 10^−8 mol/L, 15 minutes, 0.5 mM IBMX; percentage with respect to h.AM (1-52)-Gly;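 also: cAMP inside confluent receptor-expressing cells quantified by ELISA after 15 min exposure to each peptide at 10^−8 mol/L alongside 0.5 mM IBMX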
T1 construct: expressed in transfected cells; host or cells: HEK293 cell line
T1 sequence (Q16602 23-461): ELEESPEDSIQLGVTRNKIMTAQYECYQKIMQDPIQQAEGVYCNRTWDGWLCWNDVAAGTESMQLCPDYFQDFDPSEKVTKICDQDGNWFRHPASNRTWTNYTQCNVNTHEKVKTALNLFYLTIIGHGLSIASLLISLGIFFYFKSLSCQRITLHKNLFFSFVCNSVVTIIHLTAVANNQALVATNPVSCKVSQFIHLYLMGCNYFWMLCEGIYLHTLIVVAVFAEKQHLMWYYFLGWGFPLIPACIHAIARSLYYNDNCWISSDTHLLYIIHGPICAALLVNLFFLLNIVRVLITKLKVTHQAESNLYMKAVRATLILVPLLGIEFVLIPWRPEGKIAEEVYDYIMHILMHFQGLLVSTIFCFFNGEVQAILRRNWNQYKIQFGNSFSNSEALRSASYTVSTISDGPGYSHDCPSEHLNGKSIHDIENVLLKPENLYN
T1 sequence (O60895 43-175): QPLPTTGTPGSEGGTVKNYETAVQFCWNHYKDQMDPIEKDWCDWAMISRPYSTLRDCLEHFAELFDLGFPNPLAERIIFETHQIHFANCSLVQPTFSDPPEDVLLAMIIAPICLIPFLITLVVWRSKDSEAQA

[2] = tested on: spontaneously hypertensive rat (SHR); assay: Effect of suppressing increase in blood pressure in spontaneously hypertensive rat (SHR)-(2); assay type: in vivo; conditions: 30 nmol/kg subcutaneous single dose, 4 days and 9 days after administration
Experimental: The compound (37) prepared in experiment III-1 was subcutaneously administered in a single dose of 30 nmol/kg to each SHR, and the blood pressure increase-suppressing effect of the adrenomedullin derivative was observed. The compound (37) was administered in a form dissolved in physiological saline to each 8-week-old male SHR (approximately 200 g). […] of physiological saline was subcutaneously administered in a single dose to each male SHR (approximately 200 g) in the same condition as above in a control group. The blood pressure was measured over time (1 day before and 4 days and 9 days after the administration of the compound (37) or physiological saline). The values of change in the blood pressure obtained 4 days and 9 days after the administration of the compound (37) or physiological saline with respect to the average systolic blood pressure on the day before the administration are shown in FIG. 10.

[3] = 10 nmol/kg subcutaneous single dose, 7 days later

CC[C@H](C)[C@H](NC(=O)[C@H](CCC(N)=O)NC(=O)[C@H](Cc1c[nH]cn1)NC(=O)[C@H](C)NC(=O)[C@H](CC(C)C)NC(=O)[C@H](CCCCN)NC(=O)[C@H](CCC(N)=O)NC(=O)[C@@H](NC(=O)[C@@H](NC(=O)[C@@H]1CSSC[C@H](NC(=O)CNC(=O)[C@H](Cc2ccccc2)NC(=O)[C@H](CO)NC(=O)[C@H](CCCNC(=N)N)NC(=O)[C@H](CC(C)C)NC(=O)CNC(=O)[C@H](CCC(N)=O)NC(=O)[C@H](Cc2ccccc2)NC(=O)[C@H](CC(N)=O)NC(=O)[C@H](CC(N)=O)NC(=O)[C@H](CCSC)NC(=O)[C@H](CO)NC(=O)[C@H](CCC(N)=O)NC(=O)[C@H](CCCNC(=N)N)NC(=O)[C@@H](N)Cc2ccc(O)cc2)C(=O)N[C@@H](CCCNC(=N)N)C(=O)N[C@@H](Cc2ccccc2)C(=O)NCC(=O)N[C@@H]([C@@H](C)O)C(=O)N1)[C@@H](C)O)C(C)C)C(=O)N[C@@H](Cc1ccc(O)cc1)C(=O)N[C@@H](CCC(N)=O)C(=O)N[C@@H](Cc1ccccc1)C(=O)N[C@H](C(=O)N[C@@H](CC(=O)O)C(=O)N[C@@H](CCCCN)C(=O)N[C@@H](CC(=O)O)C(=O)N[C@@H](CCCCN)C(=O)N[C@@H](CC(=O)O)C(=O)N[C@@H](CC(N)=O)C(=O)N[C@H](C(=O)N[C@@H](C)C(=O)N1CCC[C@H]1C(=O)N[C@@H](CCCNC(=N)N)C(=O)N[C@@H](CO)C(=O)N[C@@H](CCCCN)C(=O)N[C@H](C(=O)N[C@@H](CO)C(=O)N1CCC[C@H]1C(=O)N[C@@H](CCC(N)=O)C(=O)NCC(=O)N[C@@H](Cc1ccc(O)cc1)C(N)=O)[C@@H](C)CC)C(C)C)[C@@H](C)O [h.AM (1-52), reference compound]
level at time molar at 24 h [1, 3]: 0 nM | level at time molar at 24 h ([1]; 10 nmol/kg subcutaneous single dose, 10 days later): 0 nM | level at time molar at 24 h ([1]; male, Wistar, plasma, sc, 10 nmol/kg subcutaneous single dose, 1 day later): 0.0067 nM | rapidly decreased blood pressure immediately after the administration (Wistar rat): rapidly decreased blood pressure was observed

CH3O-PEG (20k)-(CH2)2—CH2-^αNH-(h.AM (1-52)) [Compound (4)]
decrease in the blood pressure immediately after the administration, as compared to compound (2) (Wistar rat): further suppressed | rapidly decreased blood pressure immediately after the administration (Wistar rat): not observed

CH3O-PEG (20k)-(CH2)5—CO-^αNH-(h.AM (1-52)) [Compound (2), reference compound]
rapidly decreased blood pressure immediately after the administration (Wistar rat): not observed

GL-2-branched CH3O-PEG (40k)-CO-^αNH-(h.AM (1-52)) [Compound (27)]
level at time molar at 24 h ([1]; 10 nmol/kg subcutaneous single dose, 1 day later): ≥ 3.6 nM | level at time molar at 24 h [1, 3]: ≥ 0.12 nM

GL-2-branched CH3O-PEG (60k)-CH2-^αNH-(h.AM (1-52)-Gly) [Compound (37)]
Intracellular cAMP concentration-increasing effect (%) (AM receptor): 91****^) % | increase in the blood pressure compared to the control group [2]: suppressed | level at time molar at 24 h ([1]; 30 nmol/kg subcutaneous single dose, 1 day later): ≥ 34 nM | level at time molar at 24 h ([1]; 30 nmol/kg subcutaneous single dose, 7 days later): ≥ 1.6 nM | level at time molar at 24 h ([1]; 30 nmol/kg subcutaneous single dose, 9 days later): ≥ 0.11 nM
